The supplement of paper PMC7877785
± gives the uncertainty stated by the source.

Experiment: self-splicing fitness, log relative to wild type (ln ratio); higher = more splicing; Tetrahymena group I intron in knt gene, E. coli kanamycin selection, DiMSum; sequences stand for … in CUCUCU…GGAGGGAAAAGUUAUCAGGCAUGCACCUGGUAGCUAGUCUUUAAACCAAUAGAUUGCAUCGGUUUAAAAGGCAAGACCGUCAAAUUGCGGGAAAGGGGUCAACAGCCGUUCAGUACCAAGUCUCAGGGGAAACUUUGAGAUGGCCUUGCAAAGGGUAUGGUAAUAAGCUGACGGACAUGGUCCUAACCACGCAGCCAAGUCCUAAGUCAACAGAUCUUCUGUUGAUAUGGAUGCAGUUCACAGACUAAAUGUCGGUCGGGGAAGAUGUAUUCUUCUCAUAAGAUAUAGUCGGACCUCUCCUUAAUGGGAGCUAGCGGAUGAAGUGAUGCAACACUGGAGCCGCUGGGAACUAAUUUGUAUGCGAAAGUAUAUUGAUUAGUUUUGGAGUACUCGUGGUCG
Method in brief: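 Pooled colonies went to amplicon sequencing on an Illumina HiSeq 2500 after six replicate transformations. The plates were LB agar with 100 μg/mL carbenicillin, 50 μM IPTG and 0.2% rhamnose, with or without 25 μg/mL kanamycin, incubated overnight at 37°C or 30°C. The E. coli BL21(DE3) library had all eight P1ex-region intron nucleotides randomised, the intron placed in the knt kanamycin-resistance gene on pET-22b(+). DiMSum fitness is the error-weighted combination of replicate fold changes, kanamycin against none, normalised to wild type.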

Sequence | self-splicing fitness (ln) (30 °C) | self-splicing fitness (ln) (37 °C)
UGAGAGCAAUAUUACGCUGA | -2.42 ± 0.32 | -1.53 ± 0.28
UGAGAGCAAUAUUACGGCGA | -3.53 ± 0.34 | -0.434 ± 0.23
UGAGAGCAAUAUUACGGGCU | -2.32 ± 0.37 | -2.6 ± 0.38
UGAGAGCAAUAUUACGGUCA | -0.647 ± 0.1 | -0.589 ± 0.13
UGAGAGCAAUAUUACGUAAA | -4.31 ± 0.39 | -2.43 ± 0.45
UGAGAGCAAUAUUACGUAAU | -3.22 ± 0.21 | -2.22 ± 0.26
UGAGAGCAAUAUUACGUAGU | -2.29 ± 0.24 | -2.41 ± 0.36
UGAGAGCAAUAUUACGUAUG | -1.55 ± 0.13 | -1.66 ± 0.22
UGAGAGCAAUAUUACGUGUG | -2.9 ± 0.14 | -2.28 ± 0.12
UGAGAGCAAUAUUACGUUAG | -3.68 ± 0.37 | -3.31 ± 0.4
UGAGAGCAAUAUUACGUUCC |  | -2.11 ± 0.47
UGAGAGCAAUAUUACGUUCU | -3.3 ± 0.25 | -2.03 ± 0.27
UGAGAGCAAUAUUACGUUGU | -3.89 ± 0.19 | -2.91 ± 0.23
UGAUAGCAAUAUUACGAACG | -0.462 ± 0.15 | -0.0562 ± 0.2
UGAUAGCAAUAUUACGAAGG | -2.96 ± 0.15 | -2.26 ± 0.2
UGAUAGCAAUAUUACGACAC |  | -2.22 ± 0.45
UGAUAGCAAUAUUACGACUA | -0.635 ± 0.13 | 0.407 ± 0.17
UGAUAGCAAUAUUACGAGAU | -3.87 ± 0.43 | -1.92 ± 0.3
UGAUAGCAAUAUUACGAUAG | -0.826 ± 0.28 | -0.505 ± 0.32
UGAUAGCAAUAUUACGCAAU | -2.87 ± 0.49 | -1.62 ± 0.36
UGAUAGCAAUAUUACGCAUU | -2.52 ± 0.17 | -2.11 ± 0.17
UGAUAGCAAUAUUACGCCAU | -2.82 ± 0.26 | -3.2 ± 0.3
UGAUAGCAAUAUUACGCGAG | -1.66 ± 0.17 | -0.803 ± 0.13
UGAUAGCAAUAUUACGCGCA | -0.408 ± 0.091 | 0.2 ± 0.1
UGAUAGCAAUAUUACGCGCU | -0.577 ± 0.11 | -0.36 ± 0.14

Sequence | self-splicing fitness (ln) (30 °C) | self-splicing fitness (ln) (37 °C)
UGAUAGCAAUAUUACGGCCC | -2.82 ± 0.48 | -0.72 ± 0.42
UGAUAGCAAUAUUACGGCGU | -2.1 ± 0.18 | -1.22 ± 0.16
UGAUAGCAAUAUUACGGGAC | -4.2 ± 0.31 | -2.54 ± 0.25
UGAUAGCAAUAUUACGGUCA | -0.441 ± 0.073 | -0.29 ± 0.071
UGAUAGCAAUAUUACGGUUU | -2.91 ± 0.097 | -1.38 ± 0.11
UGAUAGCAAUAUUACGUACA | -0.211 ± 0.083 | -0.0617 ± 0.12
UGAUAGCAAUAUUACGUGAU | -3.09 ± 0.11 | -2.43 ± 0.17
UGAUAGCAAUAUUACGUUCC | -1.67 ± 0.24 | -1.1 ± 0.4
UGCAAGCAAUAUUACGAGUC | -2.87 ± 0.15 | -1.83 ± 0.14
UGCAAGCAAUAUUACGAGUU | -1.88 ± 0.084 | -0.67 ± 0.098
UGCAAGCAAUAUUACGCAGG | -4.36 ± 0.33 | -3.48 ± 0.37
UGCAAGCAAUAUUACGCAGU | -3.63 ± 0.3 | -3.35 ± 0.39
UGCAAGCAAUAUUACGCAUG | -3.63 ± 0.21 | -2.32 ± 0.29
UGCAAGCAAUAUUACGCCGG | -2.06 ± 0.13 | -0.615 ± 0.17
UGCAAGCAAUAUUACGCCUC | -1.98 ± 0.46 | -1.23 ± 0.23
UGCAAGCAAUAUUACGCGAA | -2.03 ± 0.1 | -0.581 ± 0.083
UGCAAGCAAUAUUACGCGGC | -2.85 ± 0.17 | -2.3 ± 0.2
UGCAAGCAAUAUUACGCUGA | -2.78 ± 0.12 | -0.102 ± 0.09
UGCAAGCAAUAUUACGCUGG | -4 ± 0.35 | -3.17 ± 0.24
UGCAAGCAAUAUUACGGACG | -0.345 ± 0.068 | -0.0664 ± 0.087
UGCAAGCAAUAUUACGGCCU | -0.521 ± 0.059 | -0.286 ± 0.079
UGCAAGCAAUAUUACGGCGC | -3.27 ± 0.18 | -2.84 ± 0.31
UGCAAGCAAUAUUACGGCGU | -1.24 ± 0.071 | -0.6 ± 0.091
UGCAAGCAAUAUUACGGUCG | -0.179 ± 0.073 | 0.595 ± 0.088
UGCAAGCAAUAUUACGUACG | -0.89 ± 0.12 | -0.478 ± 0.1

Sequence | self-splicing fitness (ln) (30 °C) | self-splicing fitness (ln) (37 °C)
UGCAAGCAAUAUUACGUCAU | -3.29 ± 0.13 | -2.17 ± 0.14
UGCAAGCAAUAUUACGUCCU | -0.656 ± 0.094 | -0.908 ± 0.098
UGCAAGCAAUAUUACGUGAC | -2.65 ± 0.39 | -2.19 ± 0.28
UGCAAGCAAUAUUACGUGGC | -2.62 ± 0.16 | -1.68 ± 0.2
UGCCAGCAAUAUUACGAACG | 0.252 ± 0.055 | 0.281 ± 0.067
UGCCAGCAAUAUUACGAAUC | -4.4 ± 0.46 | 
UGCCAGCAAUAUUACGACCG | -0.712 ± 0.1 | 0.509 ± 0.14
UGCCAGCAAUAUUACGAGGG | -2.61 ± 0.18 | -1.94 ± 0.19
UGCCAGCAAUAUUACGAGGU | -3.06 ± 0.13 | -3.99 ± 0.3
UGCCAGCAAUAUUACGAUCU | -2.48 ± 0.1 | -1.44 ± 0.1
UGCCAGCAAUAUUACGAUGU | -4.66 ± 0.26 | -1.34 ± 0.15
UGCCAGCAAUAUUACGCAAG | -3.07 ± 0.24 | -3.65 ± 0.46
UGCCAGCAAUAUUACGCCCU | -1.49 ± 0.11 | -0.167 ± 0.13
UGCCAGCAAUAUUACGCCGC | -2.25 ± 0.23 | -1.49 ± 0.22
UGCCAGCAAUAUUACGCUGU | -3.59 ± 0.37 | -1.37 ± 0.17
UGCCAGCAAUAUUACGGAGA | -1.47 ± 0.096 | -0.852 ± 0.098
UGCCAGCAAUAUUACGGAGC | -3.73 ± 0.4 | -3.1 ± 0.35
UGCCAGCAAUAUUACGGAGG | -3.51 ± 0.17 | -1.83 ± 0.17
UGCCAGCAAUAUUACGGCAA | -1.4 ± 0.079 | -1.52 ± 0.085
UGCCAGCAAUAUUACGGCGU | -3.04 ± 0.16 | -3.16 ± 0.27
UGCCAGCAAUAUUACGGUAU | -3.55 ± 0.16 | -2 ± 0.19
UGCCAGCAAUAUUACGGUCU | -0.21 ± 0.059 | 0.456 ± 0.07
UGCCAGCAAUAUUACGUACC | -3.09 ± 0.22 | -1.98 ± 0.21
UGCCAGCAAUAUUACGUAUG | -1.2 ± 0.069 | -0.775 ± 0.095
UGCCAGCAAUAUUACGUCAA | -1.93 ± 0.11 | -1.08 ± 0.093

Sequence | self-splicing fitness (ln) (30 °C) | self-splicing fitness (ln) (37 °C)
UGCCAGCAAUAUUACGUCGA | -1.17 ± 0.088 | -0.949 ± 0.11
UGCCAGCAAUAUUACGUGGC | -3.24 ± 0.19 | -3.19 ± 0.25
UGCCAGCAAUAUUACGUGGU | -3.85 ± 0.21 | -2.83 ± 0.19
UGCGAGCAAUAUUACGAAUC | -4.3 ± 0.43 | -2.41 ± 0.23
UGCGAGCAAUAUUACGACCA | -0.371 ± 0.18 | 
UGCGAGCAAUAUUACGACUG | -0.639 ± 0.17 | -0.0696 ± 0.2
UGCGAGCAAUAUUACGAGAU | -2.4 ± 0.33 | -3.21 ± 0.35
UGCGAGCAAUAUUACGAGGA | -3.56 ± 0.18 | -2.75 ± 0.18
UGCGAGCAAUAUUACGAUGU | -3.53 ± 0.13 | -2.97 ± 0.18
UGCGAGCAAUAUUACGAUUG | -2.09 ± 0.1 | -1.35 ± 0.16
UGCGAGCAAUAUUACGCAAU | -3.57 ± 0.18 | -2.72 ± 0.14
UGCGAGCAAUAUUACGCACU | -1.68 ± 0.27 | -1.66 ± 0.24
UGCGAGCAAUAUUACGGACU |  | -1.12 ± 0.34
UGCGAGCAAUAUUACGGAGU |  | -2.08 ± 0.3
UGCGAGCAAUAUUACGGGGC | -3.09 ± 0.27 | 
UGCGAGCAAUAUUACGGUCA | -0.764 ± 0.071 | -0.397 ± 0.077
UGCGAGCAAUAUUACGGUUC | -2.75 ± 0.28 | 
UGCGAGCAAUAUUACGUCAU | -4.84 ± 0.46 | -2.95 ± 0.23
UGCGAGCAAUAUUACGUCGA | -2.22 ± 0.16 | -1.85 ± 0.2
UGCGAGCAAUAUUACGUCGC | -1.88 ± 0.15 | -2.32 ± 0.23
UGCGAGCAAUAUUACGUGAA |  | -2.32 ± 0.16
UGCGAGCAAUAUUACGUGCG | -2.56 ± 0.27 | -0.202 ± 0.3
UGCGAGCAAUAUUACGUUAU |  | -3.11 ± 0.4
